Data on one molecule can be found in patent US20120277281A1, “POLYNUCLEOTIDES FOR MEDICAL USE” (MAX-DELBRÜCK-CENTRUM FÜR MOLEKULARE MEDIZIN, priority 2009, published 2012).

The target of experiment [1] is T1, CSF1R (Homo sapiens, UniProt P07333).
T1 construct: endogenous in cells; host or cells: L540Cy (Hodgkin/Reed-Sternberg cell line)
The experiment can be described thus: CSF1R tyrosine phosphorylation in L540Cy cells (CSF1R IP, p-Tyr western blot). The experiment is classed as cell-based. To be noted: L540Cy cells stimulated with rhCSF-1. The method, then: FIG. 1. Lineage-inappropriate expression of functional CSF1R and CSF-1 in Hodgkin lymphoma cells. Analysis of CSF1R and CSF-1 protein expression and of CSF1R:Fc functionality. (A) Analysis of CSF1R and CSF1 mRNA expression by RT-PCR in Hodgkin and non-Hodgkin cell lines. Expression of GAPDH was analyzed as a control. (1a) Analysis of CSF1R and CSF1 mRNA expression by RT-PCR in Hodgkin's and non-Hodgkin's cell lines. GAPDH expression was analyzed as a control. One representative of four independent experiments is shown. (B, C) Analysis of CSF1R (B) and CSF-1 (C) protein expression in various cell lines by extracellular and intracellular flow cytometry, respectively. IC, isotype control. (D) Supernatants of various cell lines were analyzed by a CSF-1-specific ELISA. […] CSF1R tyrosine phosphorylation was detected by WB with an antibody recognizing phospho-tyrosine (p-Tyr; upper panel). […] CSF1R tyrosine phosphorylation was detected by western blotting with an antibody recognizing phosphotyrosine (p-Tyr; top). […]
FIG. 3. […] After 48 hours, cells were pulsed with 1 μCi [^3H]-thymidine per well for a further 20 hours, and [^3H]-thymidine incorporation was determined cpm, counts per minute. […] (3A) [^3H]-thymidine incorporation in L540Cy cells left untreated (−) or treated with the indicated amounts of rhCSF-1 (black bars) or water control (open bars) under serum-reduced conditions (1% FCS) determined after 48 h. […]
Background: Immunoblotting shows a protein as a band on a membrane.

Experiment [2] relates to L540Cy cells. The experiment can be described thus: [3H]-thymidine incorporation in L540Cy cells. The experiment is classed as cell-based, human. To be noted: 1% FCS, 48 h. The method, then:
FIG. 3. HRS cells depend on CSF1R activity. (A) L540Cy cells were left untreated (−) or treated with the indicated amounts rhCSF-1 (closed bars) or the respective control (open bars) under serum reduced conditions (1% FCS). After 48 hours, cells were pulsed with 1 μCi [^3H]-thymidine per well for a further 20 hours, and [^3H]-thymidine incorporation was determined cpm, counts per minute. Data are represented as mean±SD. (3A) [^3H]-thymidine incorporation in L540Cy cells left untreated (−) or treated with the indicated amounts of rhCSF-1 (black bars) or water control (open bars) under serum-reduced conditions (1% FCS) determined after 48 h. Data are represented as means±s.d. […] After 24 hours, cells were pulsed with [^3H]-thymidine incorporation and analyzed as described in (A). […] CSF1R tyrosine phosphorylation was analyzed as described in FIG. 1F. […]
DNA synthesis was determined by [^3H]-thymidine incorporation assays using standard protocols. The percentage of viable and apoptotic cells was determined by annexin V-FITC/propidium iodide (PI) double-staining (Bender MedSystems) and subsequent FACS analysis.
We determined DNA synthesis by [^3H]-thymidine incorporation assays using standard protocols. In case of L540Cy cells (FIG. 1d), after 48 hours, cells were pulsed with 1 μCi [^3H]-thymidine per well for a further 20 hours, and [^3H]-thymidine incorporation was determined. […]
For orientation: Incorporation of labelled thymidine or its analogues reports DNA synthesis.

T1 sequence (P07333 20-972): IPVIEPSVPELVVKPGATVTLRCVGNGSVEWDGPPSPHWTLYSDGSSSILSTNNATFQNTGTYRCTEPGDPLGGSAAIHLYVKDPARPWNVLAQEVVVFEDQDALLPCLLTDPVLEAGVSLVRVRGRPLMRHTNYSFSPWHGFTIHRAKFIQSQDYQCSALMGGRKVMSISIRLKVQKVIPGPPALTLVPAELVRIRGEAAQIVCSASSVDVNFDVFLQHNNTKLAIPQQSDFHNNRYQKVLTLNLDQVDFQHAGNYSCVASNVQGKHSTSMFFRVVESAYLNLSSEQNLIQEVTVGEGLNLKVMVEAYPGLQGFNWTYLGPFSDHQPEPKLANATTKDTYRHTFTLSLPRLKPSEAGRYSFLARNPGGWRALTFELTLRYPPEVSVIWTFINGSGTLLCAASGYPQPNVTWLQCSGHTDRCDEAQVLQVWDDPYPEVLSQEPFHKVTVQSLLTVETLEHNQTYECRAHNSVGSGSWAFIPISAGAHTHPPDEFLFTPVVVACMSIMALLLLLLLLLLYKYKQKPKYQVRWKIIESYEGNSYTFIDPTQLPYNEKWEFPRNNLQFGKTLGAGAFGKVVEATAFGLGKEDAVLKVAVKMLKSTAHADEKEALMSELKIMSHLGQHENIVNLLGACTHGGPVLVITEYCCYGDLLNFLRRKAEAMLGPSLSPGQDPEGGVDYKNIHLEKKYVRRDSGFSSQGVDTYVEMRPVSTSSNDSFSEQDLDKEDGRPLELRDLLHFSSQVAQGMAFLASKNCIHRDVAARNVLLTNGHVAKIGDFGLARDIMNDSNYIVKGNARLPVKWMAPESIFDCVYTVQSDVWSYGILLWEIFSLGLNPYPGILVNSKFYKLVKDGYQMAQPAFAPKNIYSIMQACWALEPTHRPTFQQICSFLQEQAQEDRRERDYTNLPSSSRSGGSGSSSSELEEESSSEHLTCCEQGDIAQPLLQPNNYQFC

B1: rhCSF-1: recombinant human CSF-1 (216-MC, R&D Systems) (protein)
chain: EEVSEYCSHMIGSGHLQSLQRLIDSQMETSCQITFEFVDQEQLKDPVCYLKKAFLLVQDIMEDTMRFRDNTPNAIAIVQLQELSLRLKSCFTKDYEEHDKACVRTFYETPLQLLEKVKNVFNETKNLLDKDWNIFSKNCNNSFAECSSQDVVTKPDCN
Take B1: in experiment [1], the “CSF1R tyrosine phosphorylation following stimulation” value is “rapid increase”. The “proliferation ([3H]-thymidine incorporation)” value in experiment [2] is “induced proliferation in a dose-dependent manner”.
